The values that follow come from the supplement of paper PMC10567573.

To fix the notation:
B1: HDAC6 (parent)
chain: KMKTRELHRESSNFDSIYICPSTF
B2: CCNC (parent)
chain: QSSHYLQWILDKQDLLKERQKDLK
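Also: lentivirally expressed fusions sorted by FACS into six bins by GFP to DsRed ratio, PSI derived from sequencing read proportions per bin multiplied by bin number.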

One series covers variants of B1. Kind of series: protein stability index of a GFP-peptide fusion (GPS, HEK-293T) (PSI 1-6); higher = more stable. Conditions: c terminus: a fixed tail appended.
For the variant KLKTRELHRESSNFDSIYICPSTF, the protein stability index came out at 1.99. The same measure, in the same setting: with KKKTRELHRESSNFDSIYICPSTF the figure was 2.91; with KRKTRELHRESSNFDSIYICPSTF, 2.12. Still for that read-out and setting: with KMKTRELHRESSNCDSIYICPSTF the figure was 2.24. On the same count and under the same terms, next, KMKTRELHRESSNTDSIYICPSTF: 3.11.

As for KMKTRELHRESSNMDSIYICPSTF, the protein stability index came to 2.44. The same measure, in the same setting: next, KMKTRELHRESSNDDSIYICPSTF: 2.79; KMKTRELHRESSNYDSIYICPSTF: 1.78; KMKTRELHRESSNFDGIYICPSTF: 2.14.

For the variant KMKTRELHRESSNFDLIYICPSTF, the protein stability index came out at 1.74. On the same count and under the same terms, next, KMKTVELHRESSNFDSIYICPSTF: 2.27; KMKTYELHRESSNFDSIYICPSTF: 1.8; KMKTLELHRESSNFDSIYICPSTF: 3.32.

As for KMKTRELHRESSNFDSIYIEPSTF, the protein stability index is 3.34. The same measure, in the same setting: next, KMKTRELHRNSSNFDSIYICPSTF: 2.98; KMKTRELHRASSNFDSIYICPSTF: 2.51. Same read-out and setting: next, KMKTRELHRRSSNFDSIYICPSTF: 2.1. Same read-out and setting: next, KMKTRELHRESSNFDSIYDCPSTF: 3.44. KMKTRELHRESSNFDSIYECPSTF: the protein stability index turned out to be 3.81.

Take MMKTRELHRESSNFDSIYICPSTF: the protein stability index was 1.83.

Take PMKTRELHRESSNFDSIYICPSTF: the protein stability index came out at 2.58. Still for that read-out and setting: next, KMKTREVHRESSNFDSIYICPSTF: 1.92. Consider KMKTREPHRESSNFDSIYICPSTF, for which the protein stability index stood at 2.72. On the same count and under the same terms, with KMKTRECHRESSNFDSIYICPSTF the figure was 1.75. In the case of KMKTRERHRESSNFDSIYICPSTF, the protein stability index came out at 3.2. In the case of KMKTRELHREHSNFDSIYICPSTF, the protein stability index amounted to 3.04. On the same count and under the same terms, with KMKTRELHRELSNFDSIYICPSTF the figure was 1.66; with KMKTRELHRECSNFDSIYICPSTF, 1.75; with KMKTRELHRERSNFDSIYICPSTF, 1.71. The same measure, in the same setting: with KMKTRELHRESSNFDSGYICPSTF the figure was 2.51; with KMKTRELHRESSNFDSVYICPSTF, 2.27; with KMKTRELHRESENFDSIYICPSTF, 3.25. Same read-out and setting: next, KMKTRELHRESSNFTSIYICPSTF: 1.9; KMHTRELHRESSNFDSIYICPSTF: 2.04. Regarding KMVTRELHRESSNFDSIYICPSTF, the protein stability index is 2.3. On the same count and under the same terms, next, KMKTRELHRESSNFDSIYICPSTT: 3.65.

KMKTRELHRESSNFDSIYICPSTR: the protein stability index was 2.98. Turning to KMKTRELHRESSNFDSIYICPSTL, the protein stability index came out at 2.69. The same measure, in the same setting: with KMKTRELHRESSNFDSIGICPSTF the figure was 3.09; with KMKTRELHRESSNFDSIIICPSTF, 2.31.

As for KMKTRELHRESSNFDSISICPSTF, the protein stability index amounted to 2.72. The same measure, in the same setting: with KMKTRELHRESSNFDSIFICPSTF the figure was 2.05; with KMKTRELHRESSNFDSIYICPSDF, 2.56. The same measure, in the same setting: with KMKTRELHMESSNFDSIYICPSTF the figure was 1.84; with KMKTRELHIESSNFDSIYICPSTF, 1.86.

For KMKTRELHDESSNFDSIYICPSTF, the protein stability index turned out to be 2.45. Turning to KMKHRELHRESSNFDSIYICPSTF, the protein stability index stood at 1.95. Same read-out and setting: next, KMKQRELHRESSNFDSIYICPSTF: 2.26; KMKTRELWRESSNFDSIYICPSTF: 1.83; KMKTRELHRESSNFDSIYICESTF: 1.91.

KMKTRELHRESSNFDSIYICFSTF: the protein stability index was 2.44. For KMKTRELHRESSNFDSIYICGSTF, the protein stability index amounted to 1.95. Still for that read-out and setting: next, KMKTRELHRESSWFDSIYICPSTF: 1.93. The same measure, in the same setting: with KMKTRELHRESSEFDSIYICPSTF the figure was 2.23; with KMKTRELHRESSHFDSIYICPSTF, 1.58. For KMKTRELHRESSSFDSIYICPSTF, the protein stability index is 1.97.

For KMKTRELHRESSNFDSIYICPYTF, the protein stability index amounted to 1.98. On to KMKTRELHRESSNFDSIYICPETF, for which the protein stability index turned out to be 2.66.

The variants in another series derive from B2. The series is described as above. Conditions: c terminus: a fixed tail appended.
Regarding QVSHYLQWILDKQDLLKERQKDLK, the protein stability index was 2.64. Turning to QQSHYLQWILDKQDLLKERQKDLK, the protein stability index came out at 2.9. The same measure, in the same setting: next, QRSHYLQWILDKQDLLKERQKDLK: 2.39; QCSHYLQWILDKQDLLKERQKDLK: 2.27; QGSHYLQWILDKQDLLKERQKDLK: 2.78.

Take QWSHYLQWILDKQDLLKERQKDLK: the protein stability index turned out to be 2.7.

As for QTSHYLQWILDKQDLLKERQKDLK, the protein stability index amounted to 2.84. Still for that read-out and setting: with QESHYLQWILDKQDLLKERQKDLK the figure was 3.3.

As to QDSHYLQWILDKQDLLKERQKDLK, the protein stability index was determined as 3.46. Same read-out and setting: next, QHSHYLQWILDKQDLLKERQKDLK: 3.02; QFSHYLQWILDKQDLLKERQKDLK: 1.1. On the same count and under the same terms, with QISHYLQWILDKQDLLKERQKDLK the figure was 2.07; with QNSHYLQWILDKQDLLKERQKDLK, 3.15.

For QMSHYLQWILDKQDLLKERQKDLK, the protein stability index worked out at 1.49.

Turning to QPSHYLQWILDKQDLLKERQKDLK, the protein stability index stood at 3.01. The same measure, in the same setting: with QKSHYLQWILDKQDLLKERQKDLK the figure was 2.46; with QLSHYLQWILDKQDLLKERQKDLK, 1.95; with QYSHYLQWILDKQDLLKERQKDLK, 1.96. The same measure, in the same setting: next, QASHYLQWILDKQDLLKERQKDLK: 2.14; QSAHYLQWILDKQDLLKERQKDLK: 3.9; WSSHYLQWILDKQDLLKERQKDLK: 1.44. The same measure, in the same setting: with CSSHYLQWILDKQDLLKERQKDLK the figure was 3.1.

As to KSSHYLQWILDKQDLLKERQKDLK, the protein stability index was found to be 2.5. On the same count and under the same terms, next, ESSHYLQWILDKQDLLKERQKDLK: 2.72; ISSHYLQWILDKQDLLKERQKDLK: 2.28; DSSHYLQWILDKQDLLKERQKDLK: 2.94. Regarding VSSHYLQWILDKQDLLKERQKDLK, the protein stability index came out at 2.74.

Turning to ASSHYLQWILDKQDLLKERQKDLK, the protein stability index was determined as 2.78. Still for that read-out and setting: next, HSSHYLQWILDKQDLLKERQKDLK: 2.04. Regarding RSSHYLQWILDKQDLLKERQKDLK, the protein stability index is 3.1.

Turning to YSSHYLQWILDKQDLLKERQKDLK, the protein stability index came out at 2.53.

For PSSHYLQWILDKQDLLKERQKDLK, the protein stability index was 3.77.

NSSHYLQWILDKQDLLKERQKDLK: the protein stability index was 3.13. Still for that read-out and setting: with LSSHYLQWILDKQDLLKERQKDLK the figure was 2.78; with SSSHYLQWILDKQDLLKERQKDLK, 3.16; with GSSHYLQWILDKQDLLKERQKDLK, 3.6.
